These results are taken from patent publication US20240000957A1 (published 2024).

In experiment [1] the target is T1, Human EphA2 (Ecto), C-terminal polyHis (Human, UniProt P29317 24-537).
T1 construct: extracellular domain; R&D systems 3035-A2 or in-house
In words: FP competition vs Reference Compound C.

Experiment [2] addresses T2, Mouse EphA2 (Ecto) (Mouse, UniProt Q03145 26-538).
T2 construct: extracellular domain; Fluorescence polarisation assays; not shown: Fc fusion (R&D Systems 639-A2) or C-terminal polyHis (Sino Biological 50586-M08H)
Description: FP competition vs Reference Compound C.

For experiment [3], the target named is T1, Human EphA2 (Ecto), C-terminal polyHis. Description: FP competition vs Reference Compound C (Study 2).

*1 amine or outer side, *2 acyl side, *3 side chain or, on linkers, in order; H or OH if unused. Bridges are numbered along the chain shown (N, C = ends). Where no end group is shown, it is not given here. [ ]: non-standard residue; d: D form. TATA = O=C(CC[*:1])N1CN(C(=O)CC[*:2])CN(C(=O)CC[*:3])C1; 2Nal = N[C@@H](Cc1ccc2ccccc2c1)C(=O)O; βAla = NCCC(=O)O; Sar = CNCC(=O)O

T2 sequence (Q03145 26-538): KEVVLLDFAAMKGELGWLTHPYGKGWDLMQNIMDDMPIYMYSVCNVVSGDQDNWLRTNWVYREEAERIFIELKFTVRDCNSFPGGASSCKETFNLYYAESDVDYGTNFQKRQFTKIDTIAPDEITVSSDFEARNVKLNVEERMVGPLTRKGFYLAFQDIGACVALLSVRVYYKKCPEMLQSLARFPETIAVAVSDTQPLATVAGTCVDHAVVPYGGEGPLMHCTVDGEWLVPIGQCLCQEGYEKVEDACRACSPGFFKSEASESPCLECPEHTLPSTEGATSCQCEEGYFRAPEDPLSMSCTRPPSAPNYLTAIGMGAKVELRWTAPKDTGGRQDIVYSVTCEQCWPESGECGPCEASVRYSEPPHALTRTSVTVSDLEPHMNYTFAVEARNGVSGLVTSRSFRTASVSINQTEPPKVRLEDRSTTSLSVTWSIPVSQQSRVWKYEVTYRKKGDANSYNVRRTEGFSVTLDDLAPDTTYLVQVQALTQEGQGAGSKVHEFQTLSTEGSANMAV
T1 sequence (P29317 24-537): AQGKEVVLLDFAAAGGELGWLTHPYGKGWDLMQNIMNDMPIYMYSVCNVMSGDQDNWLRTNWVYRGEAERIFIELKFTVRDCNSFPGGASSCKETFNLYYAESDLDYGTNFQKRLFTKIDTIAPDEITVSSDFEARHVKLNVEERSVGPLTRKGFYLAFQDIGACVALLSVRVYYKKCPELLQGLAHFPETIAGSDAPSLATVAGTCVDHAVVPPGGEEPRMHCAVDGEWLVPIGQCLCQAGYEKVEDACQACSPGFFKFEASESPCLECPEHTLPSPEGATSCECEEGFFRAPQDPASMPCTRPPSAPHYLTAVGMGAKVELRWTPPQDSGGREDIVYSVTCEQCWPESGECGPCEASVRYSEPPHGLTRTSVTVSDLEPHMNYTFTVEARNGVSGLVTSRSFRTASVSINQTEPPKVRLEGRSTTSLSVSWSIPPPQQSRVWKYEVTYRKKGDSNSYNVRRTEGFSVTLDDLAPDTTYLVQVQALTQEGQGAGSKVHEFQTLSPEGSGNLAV

For AXDCPLVNPLCLHPGWTC (N-terminal (β-Ala)-Sar10; HArg; TATA scaffold on the 3 Cys, also called Compound 67) [BCY6014], the Ki in experiment [1] was 8.51 nM; in experiment [2] it was 61.7 nM.

For the molecule ACPLVNPLCLTSGWKCA (linker 2-9-16 via TATA; not fully specified (C-terminus)) [Compound 52], the Ki in experiment [1] amounted to 115 nM.

B1: BCY6037 (peptide)
peptide: Ac-CPLVNPLCLHPGWTCLHG
modifications: linker 1-8-15 via TATA; not fully specified (C-terminus); also: ValCit-MMAE conjugated, site not given here
notes: Bicycle drug conjugate (BDC)
With B1, the Ki in experiment [3] is 7.3 nM.

Turning to ACPLVNPLCLHPGWTCLHG (N-terminal (β-Ala)-Sar10; TATA scaffold on the 3 Cys) [Compound 75], in experiment [1], the Ki was found to be 2.48 nM.

B2: BCY6036 (peptide)
peptide: Ac-CPLVNPLCLHPGWTCLHG
modifications: linker 1-8-15 via TATA; not fully specified (C-terminus); also: DM1-SS-(Me)- conjugated, site not given here
notes: Bicycle drug conjugate (BDC)
In experiment [3], B2 came in with a Ki of 18.6 nM. That is a double-digit nanomolar value.

In experiment [1], ACPLVNPLCMIGNWTCA (linker 2-9-16 via TATA; not fully specified (C-terminus)) [Compound 60] had a Ki of 96.2 nM. That is a double-digit nanomolar value.

As for ACPLVNPLCMMGGWKCA (linker 2-9-16 via TATA; not fully specified (C-terminus)) [Compound 62], in experiment [1], the Ki stood at 67.1 nM.

Take CPLVNPLCLHPGWSCRGQ (N-terminal Ac; C-terminal -Sar6-(D-K); TATA scaffold on the 3 Cys, also called Compound 91) [BCY6042]: the figures for the Ki in experiment [1] and in experiment [2] were 5.98 nM and 49.9 nM, respectively.

ACPLVNPLCLHPGWSCRGQ (linker 2-9-16 via TATA, also called Compound 87) [BCY6026]: the figures for the Ki in experiment [1] and in experiment [2] were 2.57 nM and 18.6 nM, respectively.

Regarding ACPLVNPLCLHPGWSCXGQ (not fully specified; N-terminal (β-Ala)-Sar10; HArg; TATA scaffold on the 3 Cys) [Compound 90], the Ki in experiment [1] was 5.41 nM; in experiment [2], 47 nM.

B3: Compound 76 (peptide)
peptide: ACPLVNPLCLHPGWTCLXG
modifications: not fully specified; N-terminal (β-Ala)-Sar10; D-His; TATA scaffold on the 3 Cys
B3: the Ki stood at 10 nM in experiment [1] and 75.2 nM in experiment [2].

B4: BCY6035 (peptide)
peptide: Ac-CPLVNPLCLHPGWTCLHG
modifications: linker 1-8-15 via TATA; not fully specified (C-terminus); also: DM1-SS- conjugated, site not given here
notes: Bicycle drug conjugate (BDC)
The molecule B4 yielded an inhibitory constant (Ki) in experiment [3] of 15.2 nM.

B5: BCY6038 (peptide)
peptide: Ac-CPLVNPLCLHPGWTCLHG
modifications: linker 1-8-15 via TATA; not fully specified (C-terminus); also: TrpCit-MMAE conjugated, site not given here
notes: Bicycle drug conjugate (BDC)
In experiment [3], B5 had an inhibitory constant (Ki) of 2.8 nM.

B6: Compound 69 (peptide)
peptide: AXDCPLVNPLCLHPGWTCA
modifications: not fully specified; N-terminal Ac; HArg; C-terminal -Sar6-(D-K); TATA scaffold on the 3 Cys
Take B6: the values for the Ki in experiment [1] and in experiment [2] were 17.5 nM and 164 nM, respectively.

For ACPLVNPLCLMPGWGCA (linker 2-9-16 via TATA; not fully specified (C-terminus)) [Compound 59], in experiment [1], the affinity, expressed as Ki, was 114 nM.

In experiment [1], ACPLVNPLCLYGSWKCA (linker 2-9-16 via TATA; not fully specified (C-terminus)) [Compound 63] yielded a Ki of 59 nM.

ACPLVNPLCLMTGWSCA (linker 2-9-16 via TATA; not fully specified (C-terminus)) [Compound 61] showed a Ki in experiment [1] of 242 nM. Compared with the last molecule, the Ki is about 4.1-fold higher.

B7: Compound 79 (peptide)
peptide: ACPLVNPLCLHPG[2Nal]TCLHG
modifications: linker 2-9-16 via TATA; not fully specified (C-terminus); printed as ACPLVNPLCLHPG(2Nal)TCLHG
With B7, in experiment [1], the Ki turned out to be 162 nM.

B8: Compound 74 (peptide)
peptide: Ac-CPLVNPLCLHPGWTCLHG
modifications: linker 1-8-15 via TATA; not fully specified (C-terminus); printed as Ac-CPLVNPLCLHPGWTCLHG
B8 yielded a Ki in experiment [1] of 1.76 nM.

Take CPLVNPLCLHPGWTCLHG (N-terminal Ac; C-terminal -Sar6-(D-K); TATA scaffold on the 3 Cys, also called Compound 77) [BCY6019]: the Ki in experiment [1] was found to be 5.41 nM; in experiment [2], 48.2 nM.

For the molecule ACPLVNPLCNLPGWTCA (linker 2-9-16 via TATA; not fully specified (C-terminus)) [Compound 56], affinity in experiment [1] was put at a Ki of 184 nM.

B9: BCY6055 (peptide)
peptide: AXDCPLVNPLCLHPGWTC
modifications: not fully specified; as BCY6014 (N-terminal (β-Ala)-Sar10; HArg; TATA scaffold on the 3 Cys) + DM1-SS-(Me2)-
notes: Bicycle drug conjugate (BDC)
In experiment [3], B9 registered a Ki of 15.8 nM.

For ARDCPLVNPLCLHPGWTCA (linker 4-11-18 via TATA; not fully specified (C-terminus)) [Compound 65], the Ki in experiment [1] is 6.05 nM; in experiment [2] it was 39.1 nM.

B10: Compound 92 (peptide)
peptide: CPLVNPLCLHPGWSCXGQ
modifications: not fully specified; N-terminal Ac; HArg; C-terminal -Sar6-(D-K); TATA scaffold on the 3 Cys
For B10, the results for the Ki in experiment [1] and in experiment [2] were 10.6 nM and 75.3 nM, respectively.

B11: Compound 89 (peptide)
peptide: [βAla][Sar][Sar][Sar][Sar][Sar][Sar][Sar][Sar][Sar][Sar]ACPLVNPLCLHPGWSCRGQ
modifications: linker 13-20-27 via TATA; not fully specified (C-terminus); printed as (β-Ala)-Sar10-ACPLVNPLCLHPGWSCRGQ
As to B11, the figures for the Ki in experiment [1] and in experiment [2] were 2.86 nM and 29.6 nM, respectively.

Turning to ACPLVNPLCLLDGWTCA (linker 2-9-16 via TATA; not fully specified (C-terminus)) [Compound 58], in experiment [1], the Ki was determined as 38.4 nM.

B12: Compound 68 (peptide)
peptide: Ac-ARDCPLVNPLCLHPGWTCA
modifications: linker 4-11-18 via TATA; not fully specified (C-terminus); printed as Ac-ARDCPLVNPLCLHPGWTCA-Sar6-(D-K)
With B12, the Ki turned out to be 19.3 nM in experiment [1] and 166 nM in experiment [2].

For ACGFMGLVPCELYCADN (linker 2-10-14 via TATA; not fully specified (C-terminus)) [Compound 51], affinity in experiment [1] was put at a Ki of 84.4 nM.

For RPACPLVNPLCLHPGWTCA (linker 4-11-18 via TATA; not fully specified (C-terminus)) [Compound 70], in experiment [1], the affinity corresponds to a Ki of 10.1 nM.

In experiment [1], RPPCPLVNPLCLHPGWTCA (linker 4-11-18 via TATA; not fully specified (C-terminus)) [Compound 71] gave a Ki of 11.1 nM.
